In publication PMC11324745:

Molecular target: Polθ-hel (DNA polymerase theta helicase domain) (human, UniProt O75417 1-894)
Assay: EMSA

Polθ-hel (DNA polymerase theta helicase domain), sequence (O75417 1-894): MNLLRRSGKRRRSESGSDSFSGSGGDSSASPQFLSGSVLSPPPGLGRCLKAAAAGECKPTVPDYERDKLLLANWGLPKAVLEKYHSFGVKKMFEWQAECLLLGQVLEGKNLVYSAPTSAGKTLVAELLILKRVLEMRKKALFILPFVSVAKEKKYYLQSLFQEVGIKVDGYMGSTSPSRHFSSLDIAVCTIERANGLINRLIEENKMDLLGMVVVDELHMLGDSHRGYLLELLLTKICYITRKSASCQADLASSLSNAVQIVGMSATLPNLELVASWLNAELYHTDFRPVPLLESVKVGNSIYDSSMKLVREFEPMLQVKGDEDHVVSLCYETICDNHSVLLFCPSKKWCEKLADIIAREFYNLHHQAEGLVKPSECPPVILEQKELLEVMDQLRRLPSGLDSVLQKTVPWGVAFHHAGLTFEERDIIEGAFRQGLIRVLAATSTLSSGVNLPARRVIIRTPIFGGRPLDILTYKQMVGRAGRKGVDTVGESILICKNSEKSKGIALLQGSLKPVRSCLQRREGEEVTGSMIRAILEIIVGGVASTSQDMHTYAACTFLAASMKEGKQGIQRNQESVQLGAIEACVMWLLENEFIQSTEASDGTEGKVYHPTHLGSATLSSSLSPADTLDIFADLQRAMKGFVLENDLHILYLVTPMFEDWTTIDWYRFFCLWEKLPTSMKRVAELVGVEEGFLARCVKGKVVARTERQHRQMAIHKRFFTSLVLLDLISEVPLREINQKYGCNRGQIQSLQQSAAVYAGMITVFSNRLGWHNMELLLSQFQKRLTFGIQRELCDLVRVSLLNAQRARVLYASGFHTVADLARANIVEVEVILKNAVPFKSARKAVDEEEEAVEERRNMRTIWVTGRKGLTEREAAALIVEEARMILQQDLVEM

B1: ssDNA RP316 (ssDNA)
DNA: TTTTTTTTTTTTTTTTTTTTTTTTTTTTT
B1: binds.
